Test results from PMC3017643 (Journal of molecular biology, 2010).
Each block holds one molecule with its values, some of them ahead of it.

Assays:
[1] = biological target: full-length β-catenin (residues 1–781) (murine) (UniProt Q02248); assay: ITC
[2] = biological target: β-catenin 1-781 (UniProt Q02248); assay: isothermal titration calorimetry; conditions: reference: non-phosphorylated Lef-1(1–63); sites S40
[3] = biological target: T1, full-length β-catenin (residues 1–781) (murine, UniProt Q02248 1-781); assay: ITC
T1 sequence (looked up): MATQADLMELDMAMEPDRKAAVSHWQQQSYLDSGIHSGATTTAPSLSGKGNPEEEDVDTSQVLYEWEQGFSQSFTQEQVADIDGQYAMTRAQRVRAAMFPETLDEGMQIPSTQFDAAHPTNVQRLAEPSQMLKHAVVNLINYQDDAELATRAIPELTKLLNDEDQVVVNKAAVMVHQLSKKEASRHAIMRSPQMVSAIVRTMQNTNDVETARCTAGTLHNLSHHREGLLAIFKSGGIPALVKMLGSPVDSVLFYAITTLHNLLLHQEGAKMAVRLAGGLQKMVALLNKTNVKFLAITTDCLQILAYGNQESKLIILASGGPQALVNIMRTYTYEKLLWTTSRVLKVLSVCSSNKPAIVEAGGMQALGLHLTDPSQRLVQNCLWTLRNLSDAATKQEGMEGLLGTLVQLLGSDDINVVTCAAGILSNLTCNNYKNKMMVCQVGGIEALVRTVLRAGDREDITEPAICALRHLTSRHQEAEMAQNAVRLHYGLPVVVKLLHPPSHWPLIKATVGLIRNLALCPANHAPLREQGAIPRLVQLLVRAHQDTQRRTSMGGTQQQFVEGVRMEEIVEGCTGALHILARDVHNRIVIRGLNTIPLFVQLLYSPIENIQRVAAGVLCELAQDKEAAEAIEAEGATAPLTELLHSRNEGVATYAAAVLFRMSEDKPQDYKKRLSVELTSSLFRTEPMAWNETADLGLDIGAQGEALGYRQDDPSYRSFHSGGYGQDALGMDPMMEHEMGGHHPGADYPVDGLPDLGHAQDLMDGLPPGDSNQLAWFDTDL

Kd [1]: 35 nM
dH [1]: -12.3 kcal/mol
Molecule: CK2-phosphorylated murine Lef-1(1–63), HPLC-separated, as used for ITC (from UniProt P27782 1-63) (domain or fragment)

KD [2]: same; reference 23 (± 3) × 10−9
Molecule: Lef-1 1-63 (from UniProt P27782) CK2-phosphorylated, HPLC-purified pLef-1(1–63)

dH [1]: -13.1 kcal/mol
Molecule: murine Lef-1(1–63), non-phosphorylated, as used for ITC (from UniProt P27782 1-63) (domain or fragment)

Kd [3]: 16 nM
dH [3]: -12.5 ± 0.1 kcal/mol
B1: human TCF4 β-catenin binding region, residues 1–57 (domain or fragment, UniProt Q9NQB0 1-57, looked up)
chain: MPQLNGGGGDDLGANDELISFKDEGEQEEKSSENSSAERDLADVKSSLVNESETNQN
